# Earlier results as cited in PMC2882753.
# What was measured:
# His134 = experiment: NMR; details: 298 K; not stated (no ferricyanide present); oxidized [2Fe-2S] cluster
# His154 = experiment: NMR; details: 298 K; not stated (no ferricyanide present); oxidized [2Fe-2S] cluster
substance,measurement,setting,value
"Rieske iron-sulfur protein, soluble fragment (TtRp) (Thermus thermophilus; del1-45;del202-210;W142F)",pKa,His134,9.24 ± 0.02
same,pKa,His154,7.46 ± 0.02
